{"source": "paper PMC6347702", "proteins": {"B1": {"name": "ADP-glucokinase (∆50-hADPG) (Homo sapiens) (protein)", "chain": "VSPEGRLAAAWDALIVRPVRRWRRVAVGVNACVDVVLSGVKLLQALGLSPGNGKDHSILHSRNDLEEAFIHFMGKGAAAERFFSDKETFHDIAQVASEFPGAQHYVGGNAALIGQKFAANSDLKVLLCGPVGPKLHELLDDNVFVPPESLQEVDEFHLILEYQAGEEWGQLKAPHANRFIFSHDLSNGAMNMLEVFVSSLEEFQPDLVVLSGLHMMEGQSKELQRKRLLEVVTSISDIPTGIPVHLELASMTNRELMSSIVHQQVFPAVTSLGLNEQELLFLTQSASGPHSSLSSWNGVPDVGMVSDILFWILKEHGRSKSRASDLTRIHFHTLVYHILATVDGHWANQLAAVAAGARVAGTQACATETIDTSRVSLRAPQEFMTSHSEAGSRIVLNPNKPVVEWHREGISFHFTPVLVCKDPIRTVGLGDAISAEGLFYSEVHPHY"}, "B2": {"name": "hexokinase 2 (∆28-hHK2) (Homo sapiens) (protein)", "chain": "MRLSDETLLEISKRFRKEMEKGLGATTHPTAAVKMLPTFVRSTPDGTEHGEFLALDLGGTNFRVLWVKVTDNGLQKVEMENQIYAIPEDIMRGSGTQLFDHIAECLANFMDKLQIKDKKLPLGFTFSFPCHQTKLDESFLVSWTKGFKSSGVEGRDVVALIRKAIQRRGDFDIDIVAVVNDTVGTMMTCGYDDHNCEIGLIVGTGSNACYMEEMRHIDMVEGDEGRMCINMEWGAFGDDGSLNDIRTEFDQEIDMGSLNPGKQLFEKMISGMYMGELVRLILVKMAKEELLFGGKLSPELLNTGRFETKDISDIEGEKDGIRKAREVLMRLGLDPTQEDCVATHRICQIVSTRSASLCAATLAAVLQRIKENKGEERLRSTIGVDGSVYKKHPHFAKRLHKTVRRLVPGCDVRFLRSEDGSGKGAAMVTAVAYRLADQHRARQKTLEHLQLSHDQLLEVKRRMKVEMERGLSKETHASAPVKMLPTYVCATPDGTEKGDFLALDLGGTNFRVLLVRVRNGKWGGVEMHNKIYAIPQEVMHGTGDELFDHIVQCIADFLEYMGMKGVSLPLGFTFSFPCQQNSLDESILLKWTKGFKASGCEGEDVVTLLKEAIHRREEFDLDVVAVVNDTVGTMMTCGFEDPHCEVGLIVGTGSNACYMEEMRNVELVEGEEGRMCVNMEWGAFGDNGCLDDFRTEFDVAVDELSLNPGKQRFEKMISGMYLGEIVRNILIDFTKRGLLFRGRISERLKTRGIFETKFLSQIESDCLALLQVRAILQHLGLESTCDDSIIVKEVCTVVARRAAQLCGAGMAAVVDRIRENRGLDALKVTVGVDGTLYKLHPHFAKVMHETVKDLAPKCDVSFLQSEDGSGKGAALITAVACRIREAGQR"}, "B3": {"name": "hexokinase 3 (hHK3) (Homo sapiens) (protein)", "chain": "MDSIGSSGLRQGEETLSCSEEGLPGPSDSSELVQECLQQFKVTRAQLQQIQASLLGSMEQALRGQASPAPAVRMLPTYVGSTPHGTEQGDFVVLELGATGASLRVLWVTLTGIEGHRVEPRSQEFVIPQEVMLGAGQQLFDFAAHCLSEFLDAQPVNKQGLQLGFSFSFPCHQTGLDRSTLISWTKGFRCSGVEGQDVVQLLRDAIRRQGAYNIDVVAVVNDTVGTMMGCEPGVRPCEVGLVVDTGTNACYMEEARHVAVLDEDRGRVCVSVEWGSFSDDGALGPVLTTFDHTLDHESLNPGAQRFEKMIGGLYLGELVRLVLAHLARCGVLFGGCTSPALLSQGSILLEHVAEMEDPSTGAARVHAILQDLGLSPGASDVELVQHVCAAVCTRAAQLCAAALAAVLSCLQHSREQQTLQVAVATGGRVCERHPRFCSVLQGTVMLLAPECDVSLIPSVDGGGRGVAMVTAVAARLAAHRRLLEETLAPFRLNHDQLAAVQAQMRKAMAKGLRGEASSLRMLPTFVRATPDGSERGDFLALDLGGTNFRVLLVRVTTGVQITSEIYSIPETVAQGSGQQLFDHIVDCIVDFQQKQGLSGQSLPLGFTFSFPCRQLGLDQGILLNWTKGFKASDCEGQDVVSLLREAITRRQAVELNVVAIVNDTVGTMMSCGYEDPRCEIGLIVGTGTNACYMEELRNVAGVPGDSGRMCINMEWGAFGDDGSLAMLSTRFDASVDQASINPGKQRFEKMISGMYLGEIVRHILLHLTSLGVLFRGQQIQRLQTRDIFKTKFLSEIESDSLALRQVRAILEDLGLPLTSDDALMVLEVCQAVSQRAAQLCGAGVAAVVEKIRENRGLEELAVSVGVDGTLYKLHPRFSSLVAATVRELAPRCVVTFLQSEDGSGKGAALVTAVACRLAQLTRV"}}, "key": {"[1]": {"substrate": "OC[C@H]1OC(O)[C@H](O)[C@@H](O)[C@@H]1O", "assay": "radiochemical kinase assay, recombinant enzyme", "format": "biochemical, Homo sapiens", "conditions": "ADP-Mg2+"}, "[2]": {"substrate": "OC[C@H]1OC(O)[C@H](O)[C@@H](O)[C@@H]1O", "assay": "spectrophotometric kinase assay, recombinant enzyme", "format": "biochemical, Homo sapiens", "conditions": "ATP-Mg2+"}}, "data": [{"protein": "B1", "values": [{"measurement": "Km", "setting": "[1]", "result": "12.3 ± 1.3", "unit": "µM"}]}, {"protein": "B2", "values": [{"measurement": "Vmax", "setting": "[2]", "result": 35.4, "unit": "µmol/min/mg"}]}, {"protein": "B3", "values": [{"measurement": "Km", "setting": "[2]", "result": "12.2 ± 1", "unit": "µM"}]}]}
